Laboratory results taken from publication PMC11633198, “Vibrio cholerae CsrA controls ToxR levels by increasing the stability and translation of toxR mRNA”.
Residue numbers refer to the chain shown, from its start.

Key:
[1] = molecular target: T1, CsrA (Vibrio cholerae, UniProt Q9KUH3 1-65); assay: EMSA; 0.1 nM RNA, 0-640 nM CsrA (Fig 3B); 1 nM RNA in Fig 3C; conditions: protein: recombinant; tags: N-terminal 6xHis removed by TEV protease; chain copies: 2; label: 3' biotin; two adjacent hairpins (mfold)
[2] = molecular target: T1, CsrA; assay: EMSA; 1 nM RNA, 640 nM CsrA; conditions: protein: recombinant; tags: N-terminal 6xHis removed by TEV protease; chain copies: 2; label: 3' biotin; two adjacent hairpins (mfold)
[3] = molecular target: T1, CsrA; assay: EMSA; 1 nM RNA; conditions: protein: recombinant; tags: N-terminal 6xHis removed by TEV protease; chain copies: 2; label: 5' biotin; partly folded, stem-loops predicted by mfold
[4] = molecular target: T1, CsrA; assay: EMSA; 1 nM RNA, 640 nM CsrA; also no binding when mixed with CsrB-left; conditions: protein: recombinant; tags: N-terminal 6xHis removed by TEV protease; chain copies: 2; label: 3' biotin; hairpin (mfold)
[5] = molecular target: T1, CsrA; assay: EMSA; 1 nM RNA, 640 nM CsrA; also no binding when mixed with CsrB-right; conditions: protein: recombinant; tags: N-terminal 6xHis removed by TEV protease; chain copies: 2; label: 3' biotin; hairpin (mfold)

T1 sequence (Q9KUH3 whole entry): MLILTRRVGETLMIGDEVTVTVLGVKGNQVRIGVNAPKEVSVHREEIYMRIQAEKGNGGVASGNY

B1: CsrB oligo (structured_RNA)
RNA: UUAGAUGCAGGGAGCACCUUUUAGUAGCUGGAAUGCUGCGA
binding result [1]: binds

B2: mut-left (structured_RNA)
RNA: B1 RNA with G10U, G11A, G12U
binding result [2]: no binding

B3: CsrB-mut (oligo-mut) (structured_RNA)
RNA: B1 RNA with G10U, G11A, G12U, G30A, G31U
binding result [2]: no binding

B4: toxR 5'UTR (ssRNA)
RNA: GCAUUUUUAUCAAAGAAGAUAAAAAAACCAGUAAAGUCUGAGUGUUGGGACAGGGAGAUACUGGGACAUUAGAUGUUCGGAUUAGGACACAACUCAAAAGAGAUAUCGAUG
binding result [3]: binds

B5: CsrB-right (structured_RNA)
RNA: UUUUAGUAGCUGGAAUGCUGCGA
binding result [4]: no binding

B6: CsrB-left (structured_RNA)
RNA: UUAGAUGCAGGGAGCACCUUU
binding result [5]: no binding
